Reference: the DeepSol protein solubility set

Experiment: soluble on expression in E. coli; label from the status in PepcDB or PDB records

For “MGSDKIHHHHHHMAQYSAQFNHAKVLVLGDVMLDRYWFGATNRISPEAPVPVVRVQQNEERAGGAANVAMNIASLNVPVQLLGLTGQDEAGAALTSLLQQQKIACDFVQLATHPTITKLRILSRHQQLLRLDFEEDFQNMTSADLLKKLESAVKNYGALILSDYGKGTLNEVQKMIQIARNANVPVLIDPKGTDFERYRGATLLTPNMSEFEAVVGKCHSEQEIIDKGLKLISEINLTALLVTRSEKGMTLLRPNQPVYHLPTEAKEVFDVTGAGDTVISVLATALADGRSFEEACYLANVAAGIVVGKLGTSTVSTVELENAIHGRTGTGFGVMTEAELKEAVKLAKDRGEKIVMTNGCFDILHPGHVSYLDNARKFGDRLIVAVNTDDSVKRLKGEERPINNLASRMAVLAGLSSVDWLVPFGEDTPQRLIGEVLPDLLVKGGDYKPEEIAGSKEVWANGGDVKVLNFENGFSTSNVIKKIKHLEK”, which “soluble on expression in E. coli” value is on record?
Its value is “not soluble”.

With “MIFRAKANKALDRAEDPRETLDYSYQKQLELLQKVRRGVADVATSRKRLELQLNQLQSQSGKLEDQGRKALALGREDLAREALSRRAALQQQVTDLETQHATLQGEEEKLTLAAQRLQAKVDAFRTKKETIKATYTAAQAQTRIGEAFSGISEEMGDVGLAIQRAEDKTAQLQARAGAIDELLASGALDDQSGMHKDDIQAELDRLSGGTDVELELQRMKAELAGGSTSDRQAIEGGQGQGEASSQSQQPQDTPRFDKQLEHHHHHH” as the sequence, how does the “soluble on expression in E. coli” value read?
Its value is “not soluble”.

Which “soluble on expression in E. coli” value does the source give for “MQPQAFYRVVAEDFTAVDGIIRRQLTSRVPLVEKIGDYIISAGGKRLRPLLVLLAGKTLGYKGDDLCLLAATIEFLHTSTLLHDDVVDASGLRRGRSTANALWGNAPSVLVGDFLYARSFEMMVELGSMPVMRIISQATRVIAEGEVLQLSKVRDASTTEETYMEVIRGKTAMLFEASTHSAAALCQAGEEQSEALRRFGDYLGIAFQLVDDLLDYRGDAATLGKNVGDDLAEGKPTLPLIVTMRDGTEEQAALVRKAIQQGGSQDLESVCAAVEAAGALDYTANLARDYAARAIACLDTLPDNEYRSALVELSEFAVARTH” here?
The value was “not soluble”.

Which “soluble on expression in E. coli” value does the source give for “MLAKRSIALTAATLLREPILRREDIADSLLARDILADARQQATQILALEQEKAEHLQQQALAQFWENANAFLGELQVQREALQEQAMTAVEELLSESLRHLLDDTTLAERARALARNLAASQLNEAVATLSVHPQIADAVAEWLADSRFSEHWQLKRDATIASDSLRLSDANGAFDIAWADLRKGLLGVEPAA” here?
The value was “not soluble”.

With “SQQVDKIKASYPLFLDQDYKDMLAKKRDGFEEKYPQDKIDEVFQWTTTKEYQELNFQREALTVNPAKACQPLGAVLCALGFEKTMPYVHGSQGCVAYFRSYFNRHFREPVSCVSDSMTEDAAVFGGQQNMKDGLQNCKATYKPDMIAVSTTCMAEVIGDDLNAFINNSKKEGFIPDEFPVPFAHTPSFVGSHVTGWDNMFEGIARYFTLKSMDDKVVGSNKKINIVPGFETYLGNFRVIKRMLSEMGVGYSLLSDPEEVLDTPADGQFRMYAGGTTQEEMKDAPNALNTVLLQPWHLEKTKKFVEGTWKHEVPKLNIPMGLDWTDEFLMKVSEISGQPIPASLTKERGRLVDMMTDSHTWLHGKRFALWGDPDFVMGLVKFLLELGCEPVHILCHNGNKRWKKAVDAILAASPYGKNATVYIGKDLWHLRSLVFTDKPDFMIGNSYGKFIQRDTLHKGKEFEVPLIRIGFPIFDRHHLHRSTTLGYEGAMQILTTLVNSILERLDEETRGMQATDYNHDLVR” as the sequence, how does the “soluble on expression in E. coli” value read?
Its value is “soluble”.

With “MGSDKIHHHHHHMMNQFFEPPRVEALHVQNYRALQNVRLDSITPLTVLLGPNGSGKSTLVDVFAFLSECFGEGLRKAWDRRGRFRELRSRDSVGPIVIELQYREKPGTPLITYHLEIDEKDRGPVVKREFLRWKRTHPGAPFYFLDYREGVGRVITGEQPESQDKRIEKPLSGPDVLAVNTLGQLAENPRVIALRAFITSWHLSYLSADAARGNPEAGAEERLSQTGDNLANVIQYLGEEHPERLNKIFETLKRRVPRIEKVTSRPLDDGRLLLQVKDAPFSSPVLARFASDGTLKMLAYLILLYDPEPPQLIGIEEPENYLHPRLLPELAEECDMASERTQLIVTTHSPFFIDRLRPEQVRVLYRGADGYTRAKRVADMRGIGEFLEAGASLGDLWMEGHFDVGDPLAGEEGA” as the sequence, how does the “soluble on expression in E. coli” value read?
Its value is “not soluble”.

With “MSLAQNMTIKDDFIHAFSSNANEPDWFLDIRRNAFKAYGELDLPFVDKTKITRWNFTKFETFIPFKEGVTNETLPEKVANLVDLDNKEANFYVQMDERPARLQLQQELVDQGVIFTDIISAVKNHPELVKKYFMKDAVQVNEHKLTAFHAALVNGGIFLYVPKNVEVKSPIQAVFVQDKAESPLVNHVLLVADDNSAVTYVENYVTVNNEPKGIVSIVEEVIAEKNARITFGGVDNLASEVTAYVNRRGHIGTDSQIEWALGLMNDGDTINENVTNLMGDGSSADVKTVTVGRGKQTQNVTTRVTHYGKASNGTILSHGVMKERATTIFNGIGHIKHGASKSDAQQESRVLMLSPEARGDANPILLIDENDVVAGHAASVGRVDPLQLFYLMSRGISQKEAERLVIHGFLDPVVRQLPIESVKTMLREVIEGKVREGHHHHHH” as the sequence, how does the “soluble on expression in E. coli” value read?
The value was “soluble”.

Which “soluble on expression in E. coli” value does the source give for “MSLSDLSAFAVTQKWPAQFPEWIQLYSLPTPNGVKVSVMLEEIGLPYEAHRVSFETQDQMTPEFLSVSPNNKIPAILDPHGPGDQPLALFESGAILIYLADKSGQLLAQESAARYETIQWLMFQMGGIGPMFGQVGFFNKFAGREYEDKRPLERYVNEAKRLLGVLDKHLGGREWIMGERYTIADIATFPWIRNLIGFYEAGELVGIDNFPEVKRVLAKFVARPAVIRGLEIPKVSEGHHHHHH” here?
The value was “soluble”.

For “MSLGPIIMGQSLKAGIFFRIVTGSASMSSDRADGSSVTYSSNRSGNPDLRLIHYNDVYHVEPGSAEPVGGAPRFQSVINHYRSHPSFDGQPTPLTFFSGDAFNPSLESTVTKGRHMVPFLNKAGTNVACVGNHDLDFGVAQFRHLRNQCQFPWLLANVLDPALGEDVPIANCEKTCMLTSSNGIKVGVIGLGEREWLGTINSLPPDLIYKSASKTAIELVPSLREQGAELIVAVTHQREPNDYKLAESIPYGMIDIILGGHDHFYGHAFLNGVHILRSGTDFKQLSYIEAFRKTDGRGWDFNIVRREGHHHHHH”, which “soluble on expression in E. coli” value is on record?
Its value is “soluble”.

For “GTERPYGQREVDHYAEKQAIAERAAQEVREGQVVCFDAGSTTMEVARAIPDTDYVAATNMPDLATELAEGDVDTKLTGGSLRPRTRALVGPTAERAVERMNFDLLFLGTNALDSAAGLSTPNEDEAAIKELMVERARRVVLVADASKFGDR”, which “soluble on expression in E. coli” value is on record?
Its value is “not soluble”.

With “MAADYDKLFRPHEGMEAPDDMAAQPFFDPSASFPPAPASANLPKPNGQTPPPTSDDLSERFVSAPPPPPPPPPPPPPTPMPIAAGEPPSPEPAASKPPTPPMPIAGPEPAPPKPPTPPMPIAGPEPAPPKPPTPPMPIAGPAPTPTESQLAPPRPPTPQTPTGAPQQPESPAPHVPSHGPHQPRRTAPAPPWAKMPIGEPPPAPSRPSASPAEPPTRPAPQHSRRARRGHRYRTDTERNVGKVATGPSIQARLRAEEASGAQLAPGTEPSPAPLGQPRSYLAPPTRPAPTEPPPSPSPQRNSGRRAERRVHPDLAAQHAAAQPDSITAATTGGRRRKRAAPDLDATQKSLRPAAKGPKVKKVKPQKPKATKPPKVVSQRGWRHWVHALTRINLGLSPDEKYELDLHARVRRNPRGSYQIAVVGLKGGAGKTTLTAALGSTLAQVRADRILALDADPGAGNLADRVGRQSGATIADVLAEKELSHYNDIRAHTSVNAVNLEVLPAPEYSSAQRALSDADWHFIADPASRFYNLVLADCGAGFFDPLTRGVLSTVSGVVVVASVSIDGAQQASVALDWLRNNGYQDLASRACVVINHIMPGEPNVAVKDLVRHFEQQVQPGRVVVMPWDRHIAAGTEISLDLLDPIYKRKVLELAAALSDDFERAGRR” as the sequence, how does the “soluble on expression in E. coli” value read?
Its value is “soluble”.

Which “soluble on expression in E. coli” value does the source give for “MGSDKIHHHHHHMKLANQFNIAITPSGGRTGLSAGAVATNGEIVISMDKMNQILEFFPADRMVRVQAGVVTEQLQNYAEEQGMYYPVDFASAGSSQIGGNIGTNAGGIKVIKYGMTRNRVLGLTVVTGKGDILRLNKGMIKNATGYALQHLFIGGEGTLGLVTEAEIKLERQPQNLQVLVLGVPDFDAVMPVLHAFQKDIDLTAFEFFGELAMQKVLDRGHVQRPFETQCPFYVLLEFEAPYEPIIDKAMEIFEHCMEQGWVLDGVMSQSLDQVESLWRLREDISESIAPFIPYKNDISVLITHVPAFIREIDAIVQENYPDFEICWFGHIGDGNLHLNILKPENLTKDEFFAKCQVVNKYVFDTVKKYDGSISAEHGVGMTKKPYLEYSRSAEEIEYMKALKKVFDPKGIMNPGKLFDL” here?
The value was “not soluble”.
